Source: PMC3243626 (The EMBO Journal, 2011)
Square brackets hold non-standard residues; d marks the D form. Ends that are not written are not given here. * marks the point of attachment. Biotin = O=C1N[C@H]2[C@H](CS[C@H]2CCCCC(=O)*)N1; pT = C[C@@H](OP(=O)(O)O)[C@H](N)C(=O)O; pS = N[C@@H](COP(=O)(O)O)C(=O)O

T1: GST–Dpb11-N (BRCT1&2, aa 1–275) (S. cerevisiae, UniProt P47027 1-275)
T1 sequence (looked up): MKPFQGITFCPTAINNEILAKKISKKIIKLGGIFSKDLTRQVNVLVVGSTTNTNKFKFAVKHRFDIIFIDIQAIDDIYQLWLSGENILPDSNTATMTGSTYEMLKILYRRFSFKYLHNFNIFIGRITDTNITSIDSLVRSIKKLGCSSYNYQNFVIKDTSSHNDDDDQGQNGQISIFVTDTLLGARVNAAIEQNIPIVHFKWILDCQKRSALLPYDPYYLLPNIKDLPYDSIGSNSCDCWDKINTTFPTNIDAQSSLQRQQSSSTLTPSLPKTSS

B1: recombinant, full-length, His-tagged Dpb11 (natural protein, S. cerevisiae, UniProt P47027 1-764, looked up)
chain: MKPFQGITFCPTAINNEILAKKISKKIIKLGGIFSKDLTRQVNVLVVGSTTNTNKFKFAVKHRFDIIFIDIQAIDDIYQLWLSGENILPDSNTATMTGSTYEMLKILYRRFSFKYLHNFNIFIGRITDTNITSIDSLVRSIKKLGCSSYNYQNFVIKDTSSHNDDDDQGQNGQISIFVTDTLLGARVNAAIEQNIPIVHFKWILDCQKRSALLPYDPYYLLPNIKDLPYDSIGSNSCDCWDKINTTFPTNIDAQSSLQRQQSSSTLTPSLPKTSSLLNKFKPKGEKIWDKAMSLQQHSKTNFSVLGQSPLSINNKQEDLSDNSTLIFKNCAFIIHHIFPGNHRSILTKIVVQNGGKIETSYLSGIYDHSYYIIPSNKALDSFNDLPEIIDDNDGIVTEFFIERCLYYQKLLHPIDLWSKPFLSTIEFQVSSSSKLLHHEFSSSPFLNVTITGFSGVELLHLTKVLNLLKPMGINYVEYLNKSTDILLINLAALPSIPKTHPLWSNEFSDLFTQFCINNNNDDPGDNNRKDFQNNSILRNSMKRKIEYIKKFHSIPVVTPAFIFKLLSAASGENNEIFLNNIKWCIICPRGHKDDFKCKIKKPYYTSISSEKKYQNNDPKIDKTILLKRNNSSLSEHSMKDTKNELLQKIRETDSGRKKRSVSSSIMDVSSERQMPDTKRIKLESLPKNFVPKQIKRTTSWGTIMSENVPTEQPTAISNPEEIPRTEEVSHTQVTYGSIQDKKRTASLEKPMRRQTRNQTKELDS

Columns and labels:
[1] = target: immunopurified Mec1–18myc–Ddc2 (S. cerevisiae, UniProt P38111 1-2368; Q04377 1-747); assay: pull-down
[2] = target: T1, GST–Dpb11-N (BRCT1&2, aa 1–275); assay: pull-down

Sequence of immunopurified Mec1–18myc–Ddc2 (P38111 whole entry, chain 1 of 2, the tested form may be a part): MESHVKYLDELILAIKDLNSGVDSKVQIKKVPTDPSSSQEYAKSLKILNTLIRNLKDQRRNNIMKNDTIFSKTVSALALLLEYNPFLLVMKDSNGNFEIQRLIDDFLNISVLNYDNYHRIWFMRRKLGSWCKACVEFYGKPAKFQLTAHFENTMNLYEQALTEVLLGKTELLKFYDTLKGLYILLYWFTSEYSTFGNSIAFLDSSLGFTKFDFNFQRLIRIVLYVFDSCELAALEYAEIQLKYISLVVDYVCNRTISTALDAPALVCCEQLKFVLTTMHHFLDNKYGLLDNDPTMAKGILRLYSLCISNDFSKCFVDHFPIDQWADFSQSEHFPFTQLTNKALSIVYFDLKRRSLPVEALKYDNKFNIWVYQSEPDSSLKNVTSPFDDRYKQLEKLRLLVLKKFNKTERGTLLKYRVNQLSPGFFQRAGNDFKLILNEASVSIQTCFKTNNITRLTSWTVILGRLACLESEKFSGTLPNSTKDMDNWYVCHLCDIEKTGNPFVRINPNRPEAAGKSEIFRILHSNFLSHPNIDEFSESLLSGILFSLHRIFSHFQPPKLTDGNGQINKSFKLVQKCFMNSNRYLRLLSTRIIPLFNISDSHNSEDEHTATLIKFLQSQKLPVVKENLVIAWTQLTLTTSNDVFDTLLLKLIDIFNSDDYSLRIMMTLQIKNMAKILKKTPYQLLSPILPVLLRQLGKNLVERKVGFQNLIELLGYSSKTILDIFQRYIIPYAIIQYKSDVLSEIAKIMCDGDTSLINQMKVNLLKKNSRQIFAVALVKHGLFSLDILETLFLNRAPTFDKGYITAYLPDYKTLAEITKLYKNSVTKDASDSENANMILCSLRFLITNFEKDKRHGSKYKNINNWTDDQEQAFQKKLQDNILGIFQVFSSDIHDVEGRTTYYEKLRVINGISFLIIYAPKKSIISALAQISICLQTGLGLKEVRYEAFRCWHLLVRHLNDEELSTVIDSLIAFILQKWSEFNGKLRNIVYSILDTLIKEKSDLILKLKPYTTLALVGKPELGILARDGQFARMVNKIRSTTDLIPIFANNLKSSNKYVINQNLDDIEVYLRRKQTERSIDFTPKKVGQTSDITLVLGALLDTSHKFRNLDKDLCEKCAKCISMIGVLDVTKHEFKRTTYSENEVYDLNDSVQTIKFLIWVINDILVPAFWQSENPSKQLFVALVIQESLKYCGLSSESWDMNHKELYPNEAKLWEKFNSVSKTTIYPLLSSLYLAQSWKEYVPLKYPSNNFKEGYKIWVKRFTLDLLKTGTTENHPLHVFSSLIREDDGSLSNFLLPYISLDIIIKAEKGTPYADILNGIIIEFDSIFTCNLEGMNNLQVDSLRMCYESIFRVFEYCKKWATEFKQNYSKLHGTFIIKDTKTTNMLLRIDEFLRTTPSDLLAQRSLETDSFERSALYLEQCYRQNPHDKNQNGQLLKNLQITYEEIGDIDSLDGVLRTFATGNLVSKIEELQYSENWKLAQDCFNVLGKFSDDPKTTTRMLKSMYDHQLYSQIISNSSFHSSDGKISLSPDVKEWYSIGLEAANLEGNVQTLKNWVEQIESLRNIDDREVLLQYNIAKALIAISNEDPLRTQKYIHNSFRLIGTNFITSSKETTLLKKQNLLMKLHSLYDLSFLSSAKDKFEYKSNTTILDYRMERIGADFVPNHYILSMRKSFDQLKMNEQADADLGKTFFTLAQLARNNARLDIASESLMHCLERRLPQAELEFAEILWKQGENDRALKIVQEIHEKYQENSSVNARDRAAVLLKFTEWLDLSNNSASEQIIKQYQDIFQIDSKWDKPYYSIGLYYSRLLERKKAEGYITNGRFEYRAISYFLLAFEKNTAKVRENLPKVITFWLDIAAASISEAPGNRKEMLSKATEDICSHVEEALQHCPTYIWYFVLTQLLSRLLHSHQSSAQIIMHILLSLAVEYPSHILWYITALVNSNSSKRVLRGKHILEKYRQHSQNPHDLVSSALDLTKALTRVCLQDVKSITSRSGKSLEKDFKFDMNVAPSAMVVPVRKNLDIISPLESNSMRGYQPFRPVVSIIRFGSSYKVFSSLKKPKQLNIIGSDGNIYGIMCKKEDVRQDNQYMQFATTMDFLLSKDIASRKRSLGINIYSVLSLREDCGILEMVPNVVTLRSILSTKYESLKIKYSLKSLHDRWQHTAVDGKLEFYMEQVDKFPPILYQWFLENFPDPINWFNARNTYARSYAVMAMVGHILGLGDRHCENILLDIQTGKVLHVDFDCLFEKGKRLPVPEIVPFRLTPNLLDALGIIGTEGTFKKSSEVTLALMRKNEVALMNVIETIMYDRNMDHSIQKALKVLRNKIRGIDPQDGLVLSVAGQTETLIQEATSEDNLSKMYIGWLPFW
Sequence of immunopurified Mec1–18myc–Ddc2 (Q04377 whole entry, chain 2 of 2, the tested form may be a part): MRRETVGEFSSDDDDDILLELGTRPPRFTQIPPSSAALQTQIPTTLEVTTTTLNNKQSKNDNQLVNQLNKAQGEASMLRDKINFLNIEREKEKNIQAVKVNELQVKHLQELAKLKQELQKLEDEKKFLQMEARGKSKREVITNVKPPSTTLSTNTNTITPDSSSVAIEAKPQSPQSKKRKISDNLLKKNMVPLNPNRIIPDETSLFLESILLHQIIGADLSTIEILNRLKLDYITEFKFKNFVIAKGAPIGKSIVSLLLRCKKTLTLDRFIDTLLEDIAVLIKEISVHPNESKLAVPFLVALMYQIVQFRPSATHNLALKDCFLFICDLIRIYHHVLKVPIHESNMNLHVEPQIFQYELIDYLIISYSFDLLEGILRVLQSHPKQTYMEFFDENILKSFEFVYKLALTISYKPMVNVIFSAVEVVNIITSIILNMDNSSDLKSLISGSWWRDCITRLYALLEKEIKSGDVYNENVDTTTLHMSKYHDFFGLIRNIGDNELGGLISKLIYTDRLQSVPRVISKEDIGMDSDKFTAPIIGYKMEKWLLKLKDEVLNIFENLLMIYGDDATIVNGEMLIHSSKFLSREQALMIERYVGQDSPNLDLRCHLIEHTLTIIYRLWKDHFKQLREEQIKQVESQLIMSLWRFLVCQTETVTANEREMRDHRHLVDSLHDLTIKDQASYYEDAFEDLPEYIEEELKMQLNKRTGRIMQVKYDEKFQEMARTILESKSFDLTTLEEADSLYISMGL

Binder | binding result [1] | binding result [2]
B1 | binds | –
{Biotin-EAhx}-GISAQKGPVFHSTGQTEEIKTQIIN[pS]PEQNALNAT (peptide, UniProt P14737 437-471, looked up) [Rad9 phospho-S462 peptide (biotinylated 35mer)] | – | binds
TGQTEEIKTQIINSPEQNALNATFE[pT]PVTLSRINF (peptide, UniProt P14737 449-483, looked up, not fully specified (residue 23, N-terminus)) [Rad9 phospho-T474 peptide (biotinylated 35mer)] | – | binds
